Source: patent US20220332804A1 (CSL INNOVATION, published 2022)

What was measured:
Assay in all cases: SPR, antibody captured, C2 as analyte;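 also: biacore SPR at 37 °C, anti-C2 mAbs captured via goat anti-human IgG on CM5 chips, double-referenced sensorgrams fit to a 1:1 kinetic or steady-state model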
human C2 H435A = target: T1, human C2 H435A (human, UniProt P06681 21-752)
T1 sequence: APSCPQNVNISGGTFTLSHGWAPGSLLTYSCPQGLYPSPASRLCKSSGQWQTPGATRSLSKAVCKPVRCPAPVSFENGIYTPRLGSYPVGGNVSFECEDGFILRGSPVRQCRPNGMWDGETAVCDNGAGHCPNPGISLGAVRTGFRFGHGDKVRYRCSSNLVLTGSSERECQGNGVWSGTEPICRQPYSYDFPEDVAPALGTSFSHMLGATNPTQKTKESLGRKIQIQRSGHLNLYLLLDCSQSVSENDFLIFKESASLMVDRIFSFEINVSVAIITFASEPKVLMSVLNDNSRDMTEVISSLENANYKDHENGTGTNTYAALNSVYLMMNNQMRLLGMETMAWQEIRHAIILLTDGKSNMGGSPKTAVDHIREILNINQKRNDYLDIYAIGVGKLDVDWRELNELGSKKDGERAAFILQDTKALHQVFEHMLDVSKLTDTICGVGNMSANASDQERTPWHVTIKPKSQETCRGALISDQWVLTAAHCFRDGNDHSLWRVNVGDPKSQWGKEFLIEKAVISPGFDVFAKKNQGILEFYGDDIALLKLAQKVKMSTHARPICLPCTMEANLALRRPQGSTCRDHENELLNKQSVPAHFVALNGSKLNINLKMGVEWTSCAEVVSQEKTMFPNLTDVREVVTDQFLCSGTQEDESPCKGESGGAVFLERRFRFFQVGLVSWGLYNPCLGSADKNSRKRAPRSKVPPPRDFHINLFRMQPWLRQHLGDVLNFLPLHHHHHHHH

human C2 K715A = target: T2, human C2 K715A (human, UniProt P06681 21-752)
T2 sequence: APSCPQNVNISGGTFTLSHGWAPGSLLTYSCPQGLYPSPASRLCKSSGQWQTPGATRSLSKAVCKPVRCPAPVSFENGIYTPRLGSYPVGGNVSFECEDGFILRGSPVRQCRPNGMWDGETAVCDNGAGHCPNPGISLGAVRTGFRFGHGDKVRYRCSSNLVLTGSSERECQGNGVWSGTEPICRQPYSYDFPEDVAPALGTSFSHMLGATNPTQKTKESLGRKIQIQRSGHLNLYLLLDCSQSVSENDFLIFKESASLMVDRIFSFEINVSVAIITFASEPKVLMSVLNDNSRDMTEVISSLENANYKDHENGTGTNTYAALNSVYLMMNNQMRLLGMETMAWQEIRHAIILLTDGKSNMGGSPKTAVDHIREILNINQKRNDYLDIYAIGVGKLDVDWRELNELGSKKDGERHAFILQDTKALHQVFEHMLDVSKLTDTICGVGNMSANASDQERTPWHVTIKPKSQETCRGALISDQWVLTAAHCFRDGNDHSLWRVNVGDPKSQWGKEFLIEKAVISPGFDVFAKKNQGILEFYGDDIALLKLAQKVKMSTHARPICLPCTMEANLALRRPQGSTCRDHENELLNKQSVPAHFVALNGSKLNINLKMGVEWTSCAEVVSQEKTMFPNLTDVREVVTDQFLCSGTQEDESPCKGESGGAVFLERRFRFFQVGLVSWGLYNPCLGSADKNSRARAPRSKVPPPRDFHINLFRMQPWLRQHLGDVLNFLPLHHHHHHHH

human C2 D561A = target: T3, human C2 D561A (human, UniProt P06681 21-752)
T3 sequence: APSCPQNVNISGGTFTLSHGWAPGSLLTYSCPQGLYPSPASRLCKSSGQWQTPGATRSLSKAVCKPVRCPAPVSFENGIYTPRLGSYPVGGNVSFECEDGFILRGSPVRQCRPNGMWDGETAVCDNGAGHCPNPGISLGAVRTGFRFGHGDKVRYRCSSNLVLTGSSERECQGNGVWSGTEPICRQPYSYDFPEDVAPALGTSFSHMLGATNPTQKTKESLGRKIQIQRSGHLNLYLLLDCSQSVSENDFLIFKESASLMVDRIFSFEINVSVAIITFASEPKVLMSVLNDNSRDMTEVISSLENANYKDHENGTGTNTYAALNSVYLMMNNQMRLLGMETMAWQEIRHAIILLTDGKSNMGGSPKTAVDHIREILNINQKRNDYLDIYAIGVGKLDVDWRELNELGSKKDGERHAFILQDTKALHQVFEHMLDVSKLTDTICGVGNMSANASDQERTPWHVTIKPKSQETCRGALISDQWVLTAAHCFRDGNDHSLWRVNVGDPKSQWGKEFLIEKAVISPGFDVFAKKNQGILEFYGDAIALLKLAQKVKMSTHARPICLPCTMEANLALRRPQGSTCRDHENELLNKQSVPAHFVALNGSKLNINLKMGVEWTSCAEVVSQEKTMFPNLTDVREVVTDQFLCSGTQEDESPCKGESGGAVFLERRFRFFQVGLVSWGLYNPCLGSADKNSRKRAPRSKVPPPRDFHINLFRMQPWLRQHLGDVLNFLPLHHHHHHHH

human C2 V722A = target: T4, human C2 V722A (human, UniProt P06681 21-752)
T4 sequence: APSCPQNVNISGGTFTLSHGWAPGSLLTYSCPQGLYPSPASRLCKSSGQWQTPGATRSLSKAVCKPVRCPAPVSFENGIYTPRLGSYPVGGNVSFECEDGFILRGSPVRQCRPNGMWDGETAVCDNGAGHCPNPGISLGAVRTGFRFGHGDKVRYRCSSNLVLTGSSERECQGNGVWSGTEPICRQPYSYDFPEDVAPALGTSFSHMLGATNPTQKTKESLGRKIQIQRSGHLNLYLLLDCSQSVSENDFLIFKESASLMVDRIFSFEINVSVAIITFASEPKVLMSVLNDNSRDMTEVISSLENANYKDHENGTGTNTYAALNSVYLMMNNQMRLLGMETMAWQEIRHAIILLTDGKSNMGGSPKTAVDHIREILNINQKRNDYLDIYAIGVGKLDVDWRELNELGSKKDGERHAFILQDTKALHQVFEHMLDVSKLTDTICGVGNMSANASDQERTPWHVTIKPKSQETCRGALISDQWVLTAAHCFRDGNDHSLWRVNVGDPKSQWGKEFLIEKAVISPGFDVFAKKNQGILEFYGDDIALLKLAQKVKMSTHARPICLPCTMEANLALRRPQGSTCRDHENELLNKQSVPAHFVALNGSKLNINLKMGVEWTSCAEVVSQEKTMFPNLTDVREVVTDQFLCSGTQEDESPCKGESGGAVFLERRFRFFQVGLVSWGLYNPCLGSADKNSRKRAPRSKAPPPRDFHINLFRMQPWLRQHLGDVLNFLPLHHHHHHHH

B1: RF16-226 (antibody, human IgG4 S228P, lambda)
heavy: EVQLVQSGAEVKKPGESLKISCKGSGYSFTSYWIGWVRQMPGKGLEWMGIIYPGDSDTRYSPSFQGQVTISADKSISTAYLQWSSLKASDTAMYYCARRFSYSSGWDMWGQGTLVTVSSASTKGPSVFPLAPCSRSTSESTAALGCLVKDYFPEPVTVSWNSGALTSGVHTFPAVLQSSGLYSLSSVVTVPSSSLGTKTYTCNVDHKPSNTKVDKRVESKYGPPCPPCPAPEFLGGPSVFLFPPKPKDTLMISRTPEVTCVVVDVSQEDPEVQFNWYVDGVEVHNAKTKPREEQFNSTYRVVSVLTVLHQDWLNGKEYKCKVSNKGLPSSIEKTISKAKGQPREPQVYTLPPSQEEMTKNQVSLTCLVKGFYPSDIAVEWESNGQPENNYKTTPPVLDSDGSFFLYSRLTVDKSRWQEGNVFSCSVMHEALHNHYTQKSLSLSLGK
light: SYELTQPPSVSVSPGQTARITCSGDALTSKYVAWYQQKSGLAPLLVIYEDTRRPSGIPAKFSGSSSGSVATLTISGAHGDDEADYYCYSTDASGHQRVFGGGTKLTVLSQPKAAPSVTLFPPSSEELQANKATLVCLISDFYPGAVTVAWKADGSPVKAGVETTKPSKQSNNKYAASSYLSLTPEQWKSHRSYSCQVTHEGSTVEKTVAPTECS
notes: pH-dependent anti-C2 antibody from a phage display library; also called WT
Binder B1 has a Kd (human C2 H435A) of 24.3 nM, a Kd (human C2 K715A) of 16.2 nM and a Kd (human C2 D561A) of 102 nM. The Kd (human C2 V722A) was 95.2 nM.
